Laboratory results: patent US20240182547A1

B1: 12A1 (antibody, V domains shown)
VH: EVQLVESGGGLIQPGGSLRLSCAGSGFTFSSYTMHWVRQAPGKGLEWVSSITGGSSYVDYSASVKGRFTISRDNAQSSLYLQMNSLRAEDTAVYYCARDDYGSGSYSNWFDPWGQGTLVTVSS
VL: QSVLTQPPSVSGAPGQRVTISCTGSSSDIGAGYDVHWYQQLPGTAPKLLIFANTNRPSGVPDRFSGSKSGASASLAITGLQADDEADYYCQSYDRSLSHVFGTGTKVTVLG
B2: 3H8 (antibody, V domains shown)
VH: EVQLVESGGGLVKPGGSLRLSCAGSGFTFSSYTMHWVRQAPGKGLEWVSSITGGSSYVDYSASVKGRFTISRDNAQSSLYLQMNSLRAEDTAVYYCARDDYGSGSYSNWFDPWGRGTTVTVSS
VL: QPVLTQPLSASGTPGQRVTISCTGSSSNIGAGYDVHWYQQLPGRAPKLLIFANTNRPSGVPDRFSGSKSGTSASLAITGLQAEDEADYYCQSYDRSLSHVFGTGTKVTVLG
B3: 2H1 (antibody, V domains shown)
VH: QVTLKESGGGVVQSGRSLRLSCAASGFTFSSYTMHWVRQAPGKGLEWVSSITGGSSYVDYSASVKGRFTISRDNAQSSLYLQMNSLRAEDTAVYYCARDDYGSGSYSNWFDPWGQGTLVTVSS
VL: QSVLTQPPSVSGAPGQRVTISCTGSSSNIGAGYDVHWYQQLPGRAPKLLIYANTNRPSGVADRFSGSKSGASASLAITGLQADDEADYYCQSYDRSLSHVFGTGTKVTVLG
B4: #12m (antibody, V domains shown)
VH: EVQLVESGGGLVKPGGSLRLSCAGSGFAFSSYTMHWVRQAPGKGLEWVSSITGGSSYLDYAHSVKGRFTISRDNGQNSLFLQMNSLRTEDTAVYYCARDDYGSGSYSNYFDPWGQGTLVTVSS
VL: QSVLTQPPSVSGAPGQRVTISCTGSSSNIGAGYDVHWYQQVPGTAPKLLIFGSTNRPSGVPDRFSGSKSGASASLAITGLQTEDEADYYCQSYDRSLSHVFGTGTKVTVLG
B5: 4G1 (antibody, V domains shown)
VH: QVTLKESGGGLVKPGGSLRLSCAASGFRLSSYGMNWVRQAPGKGLEWVSSISASSSFINYADSVRDRFTISRDNAKNSLYLQMNSLRAEDTAVYYCARDDYGSGSYSNWFDPWGQGTLVTVSS
VL: QSVLTQPPSVSGAPGQRVTISCTGNSSNLGAGYDVHWYQQLPGRAPKLLIFANTNRPSGVPDRFSGSKSGASASLAITSLQADDEADYYCQSYDRSLSHVFGTGTKVTVLG
B6: 10E7 (antibody, V domains shown)
VH: EVQLVESGGGLVKPGGSLRLSCAASGFTFTSYRMHWVRQAPGKGLEWVSSITGGGNYIEYADSVKGRFTISRDNAKNSLDLQMNSLRAEDTAIYYCARDMYGLGSYYSPNYFDSWGQGTLVTVSS
VL: QSVLTQPPSVSGAPGQRVTISCTGSSSNIGAGYDVHWYQQLPGRAPKLLIFANTNRPSGVPDRFSGSKSGASASLAITGLQADDEADYYCQSYDRSLSHVFGTGTKVTVLG
B7: 12B11 (antibody, V domains shown)
VH: EVQLVESGGGVVQPGRSLRLACAASGFTFNSYAMHWVRQAPGKGLEWVSSITGGSSYVDYSASVKGRFTISRDNAQSSLYLQMNSLRAEDTAVYYCARDMYGLGSYYSPNYFDPWGQGTLVTVSS
VL: SYELTQPPSVSGAPGQRVTISCTGSSSNIGAGYDVHWYQQLPGRAPKLLIFANTNRPSGVPDRFSGSKSGTSASLAITGLQAEDEADYYCQSYDSSLSYVFGTGTKVTVLG

The binders below were run against recombinant F-protein (respiratory syncytial virus (RSV)) (UniProt P03420) (assay: SPR Biacore T-200, antibody captured on protein A chip, F-protein as analyte).
Chain of recombinant F-protein (respiratory syncytial virus (RSV)) (P03420 whole entry): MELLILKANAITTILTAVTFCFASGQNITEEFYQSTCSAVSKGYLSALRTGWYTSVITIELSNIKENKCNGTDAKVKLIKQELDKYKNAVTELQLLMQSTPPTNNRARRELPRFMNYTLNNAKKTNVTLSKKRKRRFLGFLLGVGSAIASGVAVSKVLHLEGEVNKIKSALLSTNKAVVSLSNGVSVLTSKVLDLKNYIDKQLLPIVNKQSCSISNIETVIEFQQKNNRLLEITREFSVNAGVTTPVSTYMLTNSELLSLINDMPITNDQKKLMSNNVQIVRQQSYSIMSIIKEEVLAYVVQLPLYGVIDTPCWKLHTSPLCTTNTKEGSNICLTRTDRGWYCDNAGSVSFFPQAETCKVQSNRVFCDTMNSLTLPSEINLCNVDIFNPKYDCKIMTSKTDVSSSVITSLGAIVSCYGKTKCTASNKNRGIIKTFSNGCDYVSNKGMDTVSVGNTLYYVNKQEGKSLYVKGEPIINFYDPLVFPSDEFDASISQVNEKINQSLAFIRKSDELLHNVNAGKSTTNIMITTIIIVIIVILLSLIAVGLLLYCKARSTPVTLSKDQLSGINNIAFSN
Work on B1 yielded a Kd of 0.0114 nM, a koff of 3.18e-05 s⁻¹ and a kon of 2.8e+06 M⁻¹ s⁻¹.
Work on B2 yielded a Kd of 0.00397 nM, a koff of 6.06e-05 s⁻¹ and a kon of 1.53e+07 M⁻¹ s⁻¹.
B3 gave a Kd of 0.00384 nM, a koff of 5.74e-05 s⁻¹ and a kon of 1.5e+07 M⁻¹ s⁻¹.
With B4 the Kd was 0.00677 nM, the koff was 2.07e-05 s⁻¹ and the kon was 3.06e+06 M⁻¹ s⁻¹.
In the case of B5, the Kd is reported as 0.0341 nM, the koff is reported as 6.02e-05 s⁻¹ and the kon is reported as 1.77e+06 M⁻¹ s⁻¹.
With B6 the Kd was 0.0138 nM, the koff was 2.81e-05 s⁻¹ and the kon was 2.03e+06 M⁻¹ s⁻¹.
B7 showed a Kd of 0.0115 nM, a koff of 2.89e-05 s⁻¹ and a kon of 2.52e+06 M⁻¹ s⁻¹.
